Consider one molecule from US20120114557A1.

The target of assay [1] is T1, Compound ID No 1014.
T1 chain: KKWHCYTYFPHHYCVYG
Put plainly: competition in the dried collagen assay: 1.6 uM soluble competitor protein, 5 uM Comp ID No 1014, 5 uM insoluble type I human collagen.

Assay [2] addresses T1, Compound ID No 1014. Put plainly: competition in the dried collagen assay: 1.6 uM soluble competitor protein, 5 uM Comp ID No 1014, 5 uM insoluble type I rat collagen.

B1: Type IV human collagen (soluble competitor protein), P02462 28-1669; P08572 26-1712 (protein)
chain 1: not shown
chain 2: FLAQSVLAGVKKFDVPCGGRDCSGGCQCYPEKGGRGQPGPVGPQGYNGPPGLQGFPGLQGRKGDKGERGAPGVTGPKGDVGARGVSGFPGADGIPGHPGQGGPRGRPGYDGCNGTQGDSGPQGPPGSEGFTGPPGPQGPKGQKGEPYALPKEERDRYRGEPGEPGLVGFQGPPGRPGHVGQMGPVGAPGRPGPPGPPGPKGQQGNRGLGFYGVKGEKGDVGQPGPNGIPSDTLHPIIAPTGVTFHPDQYKGEKGSEGEPGIRGISLKGEEGIMGFPGLRGYPGLSGEKGSPGQKGSRGLDGYQGPDGPRGPKGEAGDPGPPGLPAYSPHPSLAKGARGDPGFPGAQGEPGSQGEPGDPGLPGPPGLSIGDGDQRRGLPGEMGPKGFIGDPGIPALYGGPPGPDGKRGPPGPPGLPGPPGPDGFLFGLKGAKGRAGFPGLPGSPGARGPKGWKGDAGECRCTEGDEAIKGLPGLPGPKGFAGINGEPGRKGDRGDPGQHGLPGFPGLKGVPGNIGAPGPKGAKGDSRTITTKGERGQPGVPGVPGMKGDDGSPGRDGLDGFPGLPGPPGDGIKGPPGDPGYPGIPGTKGTPGEMGPPGLGLPGLKGQRGFPGDAGLPGPPGFLGPPGPAGTPGQIDCDTDVKRAVGGDRQEAIQPGCIGGPKGLPGLPGPPGPTGAKGLRGIPGFAGADGGPGPRGLPGDAGREGFPGPPGFIGPRGSKGAVGLPGPDGSPGPIGLPGPDGPPGERGLPGEVLGAQPGPRGDAGVPGQPGLKGLPGDRGPPGFRGSQGMPGMPGLKGQPGLPGPSGQPGLYGPPGLHGFPGAPGQEGPLGLPGIPGREGLPGDRGDPGDTGAPGPVGMKGLSGDRGDAGFTGEQGHPGSPGFKGIDGMPGTPGLKGDRGSPGMDGFQGMPGLKGRPGFPGSKGEAGFFGIPGLKGLAGEPGFKGSRGDPGPPGPPPVILPGMKDIKGEKGDEGPMGLKGYLGAKGIQGMPGIPGLSGIPGLPGRPGHIKGVKGDIGVPGIPGLPGFPGVAGPPGITGFPGFIGSRGDKGAPGRAGLYGEIGATGDFGDIGDTINLPGRPGLKGERGTTGIPGLKGFFGEKGTEGDIGFPGITGVTGVQGPPGLKGQTGFPGLTGPPGSQGELGRIGLPGGKGDDGWPGAPGLPGFPGLRGIRGLHGLPGTKGFPGSPGSDIHGDPGFPGPPGERGDPGEANTLPGPVGVPGQKGDQGAPGERGPPGSPGLQGFPGITPPSNISGAPGDKGAPGIFGLKGYRGPPGPPGSAALPGSKGDTGNPGAPGTPGTKGWAGDSGPQGRPGVFGLPGEKGPRGEQGFMGNTGPTGAVGDRGPKGPKGDPGFPGAPGTVGAPGIAGIPQKIAVQPGTVGPQGRRGPPGAPGEMGPQGPPGEPGFRGAPGKAGPQGRGGVSAVPGFRGDEGPIGHQGPIGQEGAPGRPGSPGLPGMPGRSVSIGYLLVKHSQTDQEPMCPVGMNKLWSGYSLLYFEGQEKAHNQDLGLAGSCLARFSTMPFLYCNPGDVCYYASRNDKSYWLSTTAPLPMMPVAEDEIKPYISRCSVCEAPAIAIAVHSQDVSIPHCPAGWRSLWIGYSFLMHTAAGDEGGGQSLVSPGSCLEDFRATPFIECNGGRGTCHYYANKYSFWLTTIPEQSFQGSPSADTLKAGLIRTHISRCQVCMKNL
modifications: here or on the partner: as printed: Gd^T-K(Gd^D)-K(Gd^D)-W-H-C-Y-T-Y-F-P-H-H-Y-C-V-Y-G; Gd^T = GdDTPA-thiourea, Gd^D = GdDOTAGA; cyclic through a disulfide between the two cysteines
Regarding B1, the % of Comp ID No 1014 bound to insoluble human collagen in presence of the competitor in the assay with Compound ID No 1014 [1] came to 59.9%. Also, the % of Comp ID No 1014 bound to insoluble rat collagen in presence of the competitor with Compound ID No 1014 [2] was 28.1%.
